Measured values taken from publication PMC8461876, “Automation assisted anaerobic phenotyping for metabolic engineering” (Microbial Cell Factories, 2021).

Substrate: O=C1C=CCCC1
Assay: purified protein
Type: biochemical, Bacillus subtilis
Settings: 0.15 mM NADPH, 40 mM HEPES pH 7.5, 35 °C, anaerobic (glucose oxidase/glucose), 15 nM enzyme

B1: enoate reductase YqjM (Bs-YqjM) (Bacillus subtilis subsp. subtilis str. 168) (protein)
chain: MARKLFTPITIKDMTLKNRIVMSPMCMYSSHEKDGKLTPFHMAHYISRAIGQVGLIIVEASAVNPQGRITDQDLGIWSDEHIEGFAKLTEQVKEQGSKIGIQLAHAGRKAELEGDIFAPSAIAFDEQSATPVEMSAEKVKETVQEFKQAAARAKEAGFDVIEIHAAHGYLIHEFLSPLSNHRTDEYGGSPENRYRFLREIIDEVKQVWDGPLFVRVSASDYTDKGLDIADHIGFAKWMKEQGVDLIDCSSGALVHADINVFPGYQVSFAEKIREQADMATGAVGMITDGSMAEEILQNGRADLIFIGRELLRDPFFARTAAKQLNTEIPAPVQYERGW
notes: full gene, N-terminal 6xHis tag (p15TvL), tag cleavage not mentioned; expressed in E. coli LOBSTR BL21(DE3); FMN loaded
Q: For B1, which Km is on record?
A: 350 ± 60 µM
